The text below walks through data of paper PMC10986958 (PLOS Pathogens, 2024).

What all share (experiment): ITC
Common to all, as to details: both partners purified

Experiment [1] addresses LC3A (residues 1-121 of human LC3A) (human, UniProt Q9H492 1-121).
The target of experiment [2] is T1, GABARAP (residues 1-117 of human GABARAP) (human, UniProt O95166 1-117).
Experiment [3] addresses T1, GABARAP (residues 1-117 of human …). The source holds these as a separate data set.
In experiment [4] the target is T2, LC3B (residues 1-125 of human LC3B) (human, UniProt Q9GZQ8 1-125).
In experiment [5] the target is T3, GABARAPL1 (residues 1-117 of human GABARAPL1) (human, UniProt Q9H0R8 1-117).
T3 construct: also called GABARPL1
T3 sequence (Q9H0R8 whole entry, the tested form may be a part): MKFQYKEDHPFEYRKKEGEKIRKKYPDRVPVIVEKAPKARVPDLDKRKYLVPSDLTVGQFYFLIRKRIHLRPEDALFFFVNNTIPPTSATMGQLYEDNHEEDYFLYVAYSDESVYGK

Experiment [6] concerns the target T2, LC3B (residues 1-125 of human LC3B). This is another data set of the same source.
Experiment [7] addresses T3, GABARAPL1 (residues 1-117 of human …). The source holds these as a separate data set.

T1 sequence (O95166 whole entry, the tested form may be a part): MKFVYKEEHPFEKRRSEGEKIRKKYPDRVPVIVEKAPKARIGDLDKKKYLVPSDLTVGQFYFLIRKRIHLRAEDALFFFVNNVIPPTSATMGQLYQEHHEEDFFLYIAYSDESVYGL

B1: NSs2 (residues 53-72 of RVFV NSs) (peptide)
peptide: RLRFSDFYNVGEFPYRVGLG
B1: the Kd in experiment [1] and in experiment [2] was above 100 µM each time.

B2: NSs1 (residues 2-16 of RVFV NSs) (peptide)
peptide: DYFPVISVDLQSGRR
With B2, the Kd in experiment [1] and in experiment [2] was above 100 µM throughout.

B3: NSs3 (residues 234-255 of RVFV NSs) (peptide)
peptide: GRNNWIPVIPPIPDVEMESEEE
For B3, the Kd in experiment [1] was above 100 µM; in experiment [3], 16 µM. Also, in experiment [2], the “stoichiometry N” value stood at 1.

B4: NSs4 (residues 247-265 of RVFV NSs) (peptide)
peptide: DVEMESEEESDDDGFVEVD
For B4, the “stoichiometry N” value in experiment [4] and in experiment [5] was 1 each time. Also, the Kd in experiment [6] came out at 0.6 µM; in experiment [7], 0.49 µM.
